According to patent publication US20190142971A1, “FORMULATION AND DELIVERY OF MODIFIED NUCLEOSIDE, NUCLEOTIDE, AND NUCLEIC ACID COMPOSITIONS” (ModernaTX, Inc., priority 2013, published 2019):
Like-named read-outs stand apart in the source and are kept apart here.

Columns and labels:
rats = test: Example 67: intravitreal mCherry/luciferase mRNA in rats, F-microscopy (Table 100); type: in vivo; conditions: saline, 18 hours
Excerpt: The sample was compared against a control of saline only delivered intravitreally.
The formulation will be administered to the left or right eye of each animal on day 1 while the animal is anesthetized. On the day prior to administration gentamicin ophthalmic ointment or solution was applied to both eyes twice. The gentamicin ophthalmic ointment or solution was also applied immediately following the injection and on the day following the injection. Prior to dosing, mydriatic drops (1% tropicamide and/or 2.5% phenylephrine) are applied to each eye.
18 hours post dosing the eyes receiving the dose of mCherry and delivery buffer are enucleated and each eye was separately placed in a tube containing 10 mL 4% paraformaldehyde at room temperature for overnight tissue fixation. The following day, eyes will be separately transferred to tubes containing 10 mL of 30% sucurose and stored at 21° C. until they were processed and sectioned. The slides prepared from different sections were evaluated under F-microscopy.

HEK293 cells = test: Example 46B: percent modification, HEK293 G-CSF ELISA (Table 75); type: cell-based, Human; conditions: HEK293, 250 ng mRNA with RNAiMAX, supernatant after 16 hours
[1] = system: peripheral blood mononuclear cells (PBMC); type: cell-based, human
Method: 500 ng of G-CSF mRNA modified with 5-methylcytosine (5mC) and pseudouridine (pseudoU) or unmodified G-CSF mRNA was transfected with 0.4 uL of Lipofectamine 2000 into peripheral blood mononuclear cells (PBMC) from three normal blood donors (D1, D2, and D3). […] The supernatant was harvested 6 hours and 18 hours after transfection and run by ELISA to determine the protein expression. The expression of G-CSF, IFN-alpha, and TNF-alpha for Donor 1 is shown in Table 88, Donor 2 is shown in Table 89 and Donor 3 is shown in Table 90.

BJ fibroblasts = conditions: 250 ng transfected daily for 5 days
mice = test: Example 29: mCherry LNP IV in mice, liver and spleen by IHC, western blot, FACS; type: in vivo; conditions: LNP NPA-003-5, 100 ug IV, 24 hrs
Method: The mCherry formulation, listed in Table 54, was characterized by particle size, zeta potential, and encapsulation.
Mice were sacrificed at 24 hrs after dosing. The liver and spleen from the mice administered with mCherry modified mRNA formulations were analyzed by immunohistochemistry (IHC), western blot, or fluorescence-activated cell sorting (FACS).

B1: mCherry: mCherry mRNA (SEQ ID NO: 5; SEQ ID NO: 12 in Example 29), Cap1, fully modified with 5-methylcytosine and pseudouridine (nucleic acid)
chain: GGGAAAUAAGAGAGAAAAGAAGAGUAAGAAGAAAUAUAAGAGCCACCAUGGUAUCCAAGGGGGAGGAGGACAACAUGGCGAUCAUCAAGGAGUUCAUGCGAUUCAAGGUGCACAUGGAAGGUUCGGUCAACGGACACGAAUUUGAAAUCGAAGGAGAGGGUGAAGGAAGGCCCUAUGAAGGGACACAGACCGCGAAACUCAAGGUCACGAAAGGGGGACCACUUCCUUUCGCCUGGGACAUUCUUUCGCCCCAGUUUAUGUACGGGUCCAAAGCAUAUGUGAAGCAUCCCGCCGAUAUUCCUGACUAUCUGAAACUCAGCUUUCCCGAGGGAUUCAAGUGGGAGCGGGUCAUGAACUUUGAGGACGGGGGUGUAGUCACCGUAACCCAAGACUCAAGCCUCCAAGACGGCGAGUUCAUCUACAAGGUCAAACUGCGGGGGACUAACUUUCCGUCGGAUGGGCCGGUGAUGCAGAAGAAAACGAUGGGAUGGGAAGCGUCAUCGGAGAGGAUGUACCCAGAAGAUGGUGCAUUGAAGGGGGAGAUCAAGCAGAGACUGAAGUUGAAAGAUGGGGGACAUUAUGAUGCCGAGGUGAAAACGACAUACAAAGCGAAAAAGCCGGUGCAGCUUCCCGGAGCGUAUAAUGUGAAUAUCAAGUUGGAUAUUACUUCACACAAUGAGGACUACACAAUUGUCGAACAGUACGAACGCGCUGAGGGUAGACACUCGACGGGAGGCAUGGACGAGUUGUACAAAUGAUAAGCUGCCUUCUGCGGGGCUUGCCUUCUGGCCAUGCCCUUCUUCUCUCCCUUGCACCUGUACCUCUUGGUCUUUGAAUAAAGCCUGAGUAGGAAG
modifications: Cap1; 5-methylcytosine and pseudouridine
rats
  mCherry expression in eye sections: Positive expression was seen
HEK293 cells
  G-CSF Expression: 0 ng/mL
[1]; PBMC Donor 1, 500 ng mRNA, 6 hours
  G-CSF: 0 pg/mL
[1]; PBMC Donor 1, 500 ng mRNA, 18 hours
  G-CSF: 0 pg/mL
[1]; PBMC Donor 2, 500 ng mRNA, 6 hours
  G-CSF: 0 pg/mL
[1]; PBMC Donor 2, 500 ng mRNA, 18 hours
  G-CSF: 7 pg/mL
[1]; PBMC Donor 3, 500 ng mRNA, 6 hours
  G-CSF: 0 pg/mL
[1]; PBMC Donor 3, 500 ng mRNA, 18 hours
  G-CSF: 0 pg/mL
BJ fibroblasts; 6 hours
  IFN-beta: 0 pg/mL
  IL-6: 3278 pg/mL
BJ fibroblasts; Day 1
  IFN-beta: 238 pg/mL
  IL-6: 3893 pg/mL
BJ fibroblasts; Day 2
  IFN-beta: 113 pg/mL
  IL-6: 1833 pg/mL
BJ fibroblasts; Day 3
  IFN-beta: 413 pg/mL
  IL-6: 25539 pg/mL
BJ fibroblasts; Day 4
  IFN-beta: 413 pg/mL
  IL-6: 29233 pg/mL
BJ fibroblasts; Day 5
  IFN-beta: 213 pg/mL
  IL-6: 20178 pg/mL
mice
  mCherry expression in liver (histology): uniform mCherry expression throughout the section
  mCherry expression in spleen leukocyte populations (FACS): negative for mCherry expression
